Measurements from patent US20150152159A1.

molecular target: human growth hormone receptor on IM-9 cells (human) (UniProt P10912); experiment: not given
Sequence of UniProt P10912 (P10912 19-638): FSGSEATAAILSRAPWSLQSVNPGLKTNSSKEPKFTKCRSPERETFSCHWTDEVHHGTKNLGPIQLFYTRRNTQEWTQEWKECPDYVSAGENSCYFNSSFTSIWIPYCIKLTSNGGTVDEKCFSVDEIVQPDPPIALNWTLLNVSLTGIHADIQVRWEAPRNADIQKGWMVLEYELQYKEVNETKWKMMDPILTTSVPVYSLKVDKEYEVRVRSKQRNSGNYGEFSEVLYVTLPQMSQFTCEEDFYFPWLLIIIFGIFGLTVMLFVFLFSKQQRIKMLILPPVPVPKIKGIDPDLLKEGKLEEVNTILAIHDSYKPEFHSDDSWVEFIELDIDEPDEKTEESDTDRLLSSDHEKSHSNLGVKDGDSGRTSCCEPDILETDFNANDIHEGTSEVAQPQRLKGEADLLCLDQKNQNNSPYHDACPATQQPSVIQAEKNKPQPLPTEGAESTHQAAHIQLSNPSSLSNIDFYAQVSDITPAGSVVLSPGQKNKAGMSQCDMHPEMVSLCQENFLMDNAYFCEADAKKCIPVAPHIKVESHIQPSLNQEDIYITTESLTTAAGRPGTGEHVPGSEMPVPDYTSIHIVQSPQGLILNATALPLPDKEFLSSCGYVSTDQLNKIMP

| Substance | EC50, STAT5 phosphorylation in IM-9 cells (MFI of PE, intracellular phospho-STAT5 staining) [nM] |
| --- | --- |
| hGH F92pAF (from UniProt P01241 27-217) (ligand) | 1.1 |

molecular target: human growth hormone receptor on IM-9 cells (human) (UniProt P10912); experiment: cell-based or functional assay

| Substance | EC50 (nM), STAT5 phosphorylation in IM-9 cells [nM] |
| --- | --- |
| His-tagged hGH Y143pAF (from UniProt P01241 27-217) (ligand) | 0.8 |
| hGH A155pAF (from UniProt P01241 27-217) (ligand) | 1.3 |
| hGH E88pAF (from UniProt P01241 27-217) (ligand) | 0.9 |
| hGH F92pAF (from UniProt P01241 27-217) (ligand) | 0.8 |
| hGH F139pAF (from UniProt P01241 27-217) (ligand) | 3.3 |
| hGH G131pAF (from UniProt P01241 27-217) (ligand) | 0.8 |
| hGH G136pAF (from UniProt P01241 27-217) (ligand) | 1.4 |
| hGH K140pAF (from UniProt P01241 27-217) (ligand) | 2.7 |
| hGH N99pAF (from UniProt P01241 27-217) (ligand) | 8.5 |
| hGH P133pAF (from UniProt P01241 27-217) (ligand) | 1 |
| hGH Q91pAF (from UniProt P01241 27-217) (ligand) | 2 |
| hGH R134pAF (from UniProt P01241 27-217) (ligand) | 0.9 |
| hGH S95pAF (from UniProt P01241 27-217) (ligand) | 16.7 |
| hGH T135pAF (from UniProt P01241 27-217) (ligand) | 0.9 |
| hGH Y103pAF (from UniProt P01241 27-217) (ligand) | 130000 |
| hGH Y111pAF (from UniProt P01241 27-217) (ligand) | 1 |
| rat GH WT (from UniProt P01244 27-216) (ligand) | > 200000 |

molecular target: human growth hormone receptor on IM-9 cells (human) (UniProt P10912); experiment: not given; remark: another data set of the same source

| Substance | EC50, STAT5 phosphorylation in IM-9 cells (MFI of PE, intracellular phospho-STAT5 staining) [nM] |
| --- | --- |
| (His)F92-pAF-30K (ligand) | 4.1 |
| (His)F92pAF-5K (from UniProt P09466) (ligand) | 1.5 |
| (His)F92pAF-20K (from UniProt P09466) (ligand) | 4.6 |
| hGH F92pAF (from UniProt P01241 27-217) (ligand) | 0.9 |
